Molecular target: purified recombinant endophilin A1-SH3 (ITC and NMR) (UniProt O35179 291-352)
Assay: ITC

purified recombinant endophilin A1-SH3 (ITC and NMR), sequence (O35179 291-352): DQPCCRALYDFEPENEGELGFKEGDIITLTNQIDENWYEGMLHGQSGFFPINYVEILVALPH

B1: purified recombinant intersectin 1-SH3B (ITC and NMR) (domain or fragment)
chain: LQAQALYPWRAKKDNHLNFNKNDVITVLEQQDMWWFGEVQGQKGWFPKSYVKLIS
With B1 the Kd was ~30 µM and the “stoichiometry N” value was 1.

— publication PMC4328750 (EMBO Reports, 2014)
